Measured values as given in US20260242735A1 (UNIVERSIT T BASEL, published 2026).
Each block holds one binder with its values, some of them ahead of it.

What was measured:
Test in all cases: alanine scan, flow cytometry;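 further: HEK293-T cells transiently expressing single-residue alanine mutants of CD33 (alanine swapped to serine), antibody binding read by fluorescence in duplicate, background-subtracted, expressed relative to wild-type CD33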
human CD33 R89A = human CD33 R89A (human, UniProt P20138 18-364)
human CD33 I66A = human CD33 I66A (human, UniProt P20138 18-364)
human CD33 C36A = human CD33 C36A (human, UniProt P20138 18-364)
human CD33 E33A = human CD33 E33A (human, UniProt P20138 18-364)
human CD33 Y49A = human CD33 Y49A (human, UniProt P20138 18-364)
human CD33 V39A = human CD33 V39A (human, UniProt P20138 18-364)
human CD33 F21A = human CD33 F21A (human, UniProt P20138 18-364)
human CD33 I47A = human CD33 I47A (human, UniProt P20138 18-364)
human CD33 V56A = human CD33 V56A (human, UniProt P20138 18-364)
human CD33 K52A = human CD33 K52A (human, UniProt P20138 18-364)
human CD33 V31A = human CD33 V31A (human, UniProt P20138 18-364)
human CD33 P40A = human CD33 P40A (human, UniProt P20138 18-364)
human CD33 G64A = human CD33 G64A (human, UniProt P20138 18-364)
human CD33 F43A = human CD33 F43A (human, UniProt P20138 18-364)
human CD33 V37A = human CD33 V37A (human, UniProt P20138 18-364)
human CD33 S28A = human CD33 S28A (human, UniProt P20138 18-364)
human CD33 P46A = human CD33 P46A (human, UniProt P20138 18-364)
human CD33 F61A = human CD33 F61A (human, UniProt P20138 18-364)
human CD33 R62A = human CD33 R62A (human, UniProt P20138 18-364)
human CD33 A65S = human CD33 A65S (human, UniProt P20138 18-364)
human CD33 G34A = human CD33 G34A (human, UniProt P20138 18-364)
human CD33 Q26A = human CD33 Q26A (human, UniProt P20138 18-364)
human CD33 L35A = human CD33 L35A (human, UniProt P20138 18-364)
human CD33 V73A = human CD33 V73A (human, UniProt P20138 18-364)
human CD33 N20A = human CD33 N20A (human, UniProt P20138 18-364)
human CD33 R91A = human CD33 R91A (human, UniProt P20138 18-364)
human CD33 D51A = human CD33 D51A (human, UniProt P20138 18-364)
human CD33 P72A = human CD33 P72A (human, UniProt P20138 18-364)
human CD33 A74S = human CD33 A74S (human, UniProt P20138 18-364)
human CD33 F44A = human CD33 F44A (human, UniProt P20138 18-364)
human CD33 L92A = human CD33 L92A (human, UniProt P20138 18-364)
human CD33 I67A = human CD33 I67A (human, UniProt P20138 18-364)
Chain of human CD33 I67A (P20138 18-364 I67A limits assumed): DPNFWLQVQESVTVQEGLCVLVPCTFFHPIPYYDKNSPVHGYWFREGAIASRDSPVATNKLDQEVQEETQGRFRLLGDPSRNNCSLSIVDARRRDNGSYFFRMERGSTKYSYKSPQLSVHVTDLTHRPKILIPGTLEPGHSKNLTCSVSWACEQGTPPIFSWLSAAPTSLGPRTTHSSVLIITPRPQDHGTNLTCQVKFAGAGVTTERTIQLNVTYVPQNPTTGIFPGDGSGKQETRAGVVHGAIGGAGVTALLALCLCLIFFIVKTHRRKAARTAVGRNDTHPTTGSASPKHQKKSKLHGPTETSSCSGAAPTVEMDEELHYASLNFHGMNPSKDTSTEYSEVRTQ

Chain of human CD33 V39A (P20138 18-364 V39A limits assumed): as the sequence (P20138 18-364 I67A limits assumed) above, with V22A, A50I counted along it
Chain of human CD33 V73A (P20138 18-364 V73A limits assumed): as the sequence (P20138 18-364 I67A limits assumed) above, with A50I, V56A counted along it
Chain of human CD33 C36A (P20138 18-364 C36A limits assumed): as the sequence (P20138 18-364 I67A limits assumed) above, with C19A, A50I counted along it
Chain of human CD33 E33A (P20138 18-364 E33A limits assumed): as the sequence (P20138 18-364 I67A limits assumed) above, with E16A, A50I counted along it
Chain of human CD33 R91A (P20138 18-364 R91A limits assumed): as the sequence (P20138 18-364 I67A limits assumed) above, with A50I, R74A counted along it
Chain of human CD33 P40A (P20138 18-364 P40A limits assumed): as the sequence (P20138 18-364 I67A limits assumed) above, with P23A, A50I counted along it
Chain of human CD33 A65S (P20138 18-364 A65S limits assumed): as the sequence (P20138 18-364 I67A limits assumed) above, with A48S, A50I counted along it
Chain of human CD33 P46A (P20138 18-364 P46A limits assumed): as the sequence (P20138 18-364 I67A limits assumed) above, with P29A, A50I counted along it
Chain of human CD33 V56A (P20138 18-364 V56A limits assumed): as the sequence (P20138 18-364 I67A limits assumed) above, with V39A, A50I counted along it
Chain of human CD33 V31A (P20138 18-364 V31A limits assumed): as the sequence (P20138 18-364 I67A limits assumed) above, with V14A, A50I counted along it
Chain of human CD33 G34A (P20138 18-364 G34A limits assumed): as the sequence (P20138 18-364 I67A limits assumed) above, with G17A, A50I counted along it
Chain of human CD33 A74S (P20138 18-364 A74S limits assumed): as the sequence (P20138 18-364 I67A limits assumed) above, with A50I, A57S counted along it
Chain of human CD33 I47A (P20138 18-364 I47A limits assumed): as the sequence (P20138 18-364 I67A limits assumed) above, with I30A, A50I counted along it
Chain of human CD33 Y49A (P20138 18-364 Y49A limits assumed): as the sequence (P20138 18-364 I67A limits assumed) above, with Y32A, A50I counted along it
Chain of human CD33 R89A (P20138 18-364 R89A limits assumed): as the sequence (P20138 18-364 I67A limits assumed) above, with A50I, R72A counted along it
Chain of human CD33 L92A (P20138 18-364 L92A limits assumed): as the sequence (P20138 18-364 I67A limits assumed) above, with A50I, L75A counted along it
Chain of human CD33 N20A (P20138 18-364 N20A limits assumed): as the sequence (P20138 18-364 I67A limits assumed) above, with N3A, A50I counted along it
Chain of human CD33 K52A (P20138 18-364 K52A limits assumed): as the sequence (P20138 18-364 I67A limits assumed) above, with K35A, A50I counted along it
Chain of human CD33 S28A (P20138 18-364 S28A limits assumed): as the sequence (P20138 18-364 I67A limits assumed) above, with S11A, A50I counted along it
Chain of human CD33 D51A (P20138 18-364 D51A limits assumed): as the sequence (P20138 18-364 I67A limits assumed) above, with D34A, A50I counted along it
Chain of human CD33 G64A (P20138 18-364 G64A limits assumed): as the sequence (P20138 18-364 I67A limits assumed) above, with G47A, A50I counted along it
Chain of human CD33 P72A (P20138 18-364 P72A limits assumed): as the sequence (P20138 18-364 I67A limits assumed) above, with A50I, P55A counted along it
Chain of human CD33 F44A (P20138 18-364 F44A limits assumed): as the sequence (P20138 18-364 I67A limits assumed) above, with F27A, A50I counted along it
Chain of human CD33 L35A (P20138 18-364 L35A limits assumed): as the sequence (P20138 18-364 I67A limits assumed) above, with L18A, A50I counted along it
Chain of human CD33 V37A (P20138 18-364 V37A limits assumed): as the sequence (P20138 18-364 I67A limits assumed) above, with V20A, A50I counted along it
Chain of human CD33 R62A (P20138 18-364 R62A limits assumed): as the sequence (P20138 18-364 I67A limits assumed) above, with R45A, A50I counted along it
Chain of human CD33 F61A (P20138 18-364 F61A limits assumed): as the sequence (P20138 18-364 I67A limits assumed) above, with F44A, A50I counted along it
Chain of human CD33 F43A (P20138 18-364 F43A limits assumed): as the sequence (P20138 18-364 I67A limits assumed) above, with F26A, A50I counted along it
Chain of human CD33 I66A (P20138 18-364 I66A limits assumed): as the sequence (P20138 18-364 I67A limits assumed) above, with I49A, A50I counted along it
Chain of human CD33 Q26A (P20138 18-364 Q26A limits assumed): as the sequence (P20138 18-364 I67A limits assumed) above, with Q9A, A50I counted along it
Chain of human CD33 F21A (P20138 18-364 F21A limits assumed): as the sequence (P20138 18-364 I67A limits assumed) above, with F4A, A50I counted along it

Mean % WT Binding (human CD33 R89A): 98.7 % WT
Mean % WT Binding (human CD33 I66A): 118 % WT
Mean % WT Binding (human CD33 C36A): 117 % WT
Mean % WT Binding (human CD33 E33A): 120 % WT
Mean % WT Binding (human CD33 Y49A): 44.2 % WT
Mean % WT Binding (human CD33 V39A): 111 % WT
Mean % WT Binding (human CD33 F21A): 120 % WT
Mean % WT Binding (human CD33 I47A): 2.1 % WT
Mean % WT Binding (human CD33 V56A): 80.7 % WT
Mean % WT Binding (human CD33 K52A): 94.9 % WT
Mean % WT Binding (human CD33 V31A): 106 % WT
Mean % WT Binding (human CD33 P40A): 101 % WT
Mean % WT Binding (human CD33 G64A): 114 % WT
Mean % WT Binding (human CD33 F43A): 10.6 % WT
Mean % WT Binding (human CD33 V37A): 118 % WT
Mean % WT Binding (human CD33 S28A): 117 % WT
Mean % WT Binding (human CD33 P46A): 104 % WT
Mean % WT Binding (human CD33 F61A): 135 % WT
Mean % WT Binding (human CD33 R62A): 124 % WT
Mean % WT Binding (human CD33 A65S): 112 % WT
Mean % WT Binding (human CD33 G34A): 105 % WT
Mean % WT Binding (human CD33 Q26A): 111 % WT
Mean % WT Binding (human CD33 L35A): 119 % WT
Mean % WT Binding (human CD33 V73A): 99.1 % WT
Mean % WT Binding (human CD33 N20A): 121 % WT
Mean % WT Binding (human CD33 R91A): 119 % WT
Mean % WT Binding (human CD33 D51A): 59 % WT
Mean % WT Binding (human CD33 P72A): 114 % WT
Mean % WT Binding (human CD33 A74S): 91.7 % WT
Mean % WT Binding (human CD33 F44A): 1.2 % WT
Mean % WT Binding (human CD33 L92A): 106 % WT
Mean % WT Binding (human CD33 I67A): 122 % WT
B1: Refmab #2 (antibody, V domains shown)
VH: QVQLVQSGAEVKKPGSSVKVSCKASGGTFSDYAISWVRQAPGQGLEWMGRIIPILGVADYAQKFQGRVTITADKSTRTAYMELSSLRSEDTAVYYCARNWADAFDIWGQGTMVTVSS
VL: DIQLTQSPSSLSASVGDRVTITCRASQGISSVLAWYQQKPGKAPKLLIYDASSLESGVPSRFSGSGSGTDFTLTISSLQPEDFATYYCQQFDSSITFGQGTKLEIK
notes: Full-length format is human IgG1 Fc silent (PG-LALA); The alanine scan used IgG or Fab

Mean % WT Binding (human CD33 R89A): 77.6 % WT
Mean % WT Binding (human CD33 I66A): 96.6 % WT
Mean % WT Binding (human CD33 C36A): 72.6 % WT
Mean % WT Binding (human CD33 E33A): 86.4 % WT
Mean % WT Binding (human CD33 Y49A): 106 % WT
Mean % WT Binding (human CD33 V39A): 80 % WT
Mean % WT Binding (human CD33 F21A): 0.4 % WT
Mean % WT Binding (human CD33 I47A): 84.2 % WT
Mean % WT Binding (human CD33 V56A): 94.3 % WT
Mean % WT Binding (human CD33 K52A): 84.2 % WT
Mean % WT Binding (human CD33 V31A): 87 % WT
Mean % WT Binding (human CD33 P40A): 74.5 % WT
Mean % WT Binding (human CD33 G64A): 90.6 % WT
Mean % WT Binding (human CD33 F43A): 66.3 % WT
Mean % WT Binding (human CD33 V37A): 78.7 % WT
Mean % WT Binding (human CD33 S28A): 93.9 % WT
Mean % WT Binding (human CD33 P46A): 64.8 % WT
Mean % WT Binding (human CD33 F61A): 95 % WT
Mean % WT Binding (human CD33 R62A): 121 % WT
Mean % WT Binding (human CD33 A65S): 88.5 % WT
Mean % WT Binding (human CD33 G34A): 99.5 % WT
Mean % WT Binding (human CD33 Q26A): 81.4 % WT
Mean % WT Binding (human CD33 L35A): 89.1 % WT
Mean % WT Binding (human CD33 V73A): 73.6 % WT
Mean % WT Binding (human CD33 N20A): 1.2 % WT
Mean % WT Binding (human CD33 R91A): 82 % WT
Mean % WT Binding (human CD33 D51A): 82.4 % WT
Mean % WT Binding (human CD33 P72A): 99.9 % WT
Mean % WT Binding (human CD33 A74S): 83.7 % WT
Mean % WT Binding (human CD33 F44A): 85.1 % WT
Mean % WT Binding (human CD33 L92A): 75.2 % WT
Mean % WT Binding (human CD33 I67A): 98.1 % WT
B2: Refmab #1 (antibody, V domains shown)
VH: EVQLVQSGAEVKKPGSSVKVSCKASGYTITDSNIHWVRQAPGQSLEWIGYIYPYNGGTDYNQKFKNRATLTVDNPTNTAYMELSSLRSEDTAFYYCVNGNPWLAYWGQGTLVTVSS
VL: DIQLTQSPSTLSASVGDRVTITCRASESLDNYGIRFLTWFQQKPGKAPKLLMYAASNQGSGVPSRFSGSGSGTEFTLTISSLQPDDFATYYCQQTKEVPWSFGQGTKVEVK
notes: Full-length format is human IgG1 (Absolute Antibody Ab00283-10.0); The alanine scan used IgG or Fab; also called hP67.6
